Data reported in US20160264649A1.

Columns and labels:
Assay in all cases: cell-based or functional assay
[1] = target: HIV-1 Env of isolate MG RM-C-026 (HIV-1)
[2] = target: HIV-1 Env of isolate THR0.18 (HIV-1)
[3] = target: HIV-1 Env of isolate NL43 (HIV-1)
[4] = target: HIV-1 Env of isolate 93TH305 (HIV-1)
[5] = target: HIV-1 Env of isolate JRFL (HIV-1)
[6] = target: HIV-1 Env of isolate MGRM-Chronic-B-011 (HIV-1)
[7] = target: HIV-1 Env of isolate MGRM-Chronic-B-017 (HIV-1)
[8] = target: HIV-1 Env of isolate 93IN905 (HIV-1)
[9] = target: HIV-1 Env of isolate APV_17 (HIV-1)
[10] = target: HIV-1 Env of isolate 6535.3 (HIV-1)
[11] = target: HIV-1 Env of isolate MGRM-Chronic-B-010 (HIV-1)
[12] = target: HIV-1 Env of isolate 93MW959 (HIV-1)
[13] = target: HIV-1 Env of isolate MGRM-Chronic-B-024 (HIV-1)
[14] = target: HIV-1 Env of isolate 98IN022 (HIV-1)
[15] = target: HIV-1 Env of isolate MGRM-Chronic-B-018 (HIV-1)
[16] = target: HIV-1 Env of isolate MG RM-C-027 (HIV-1)
[17] = target: HIV-1 Env of isolate VLGCB3 (HIV-1)
[18] = target: HIV-1 Env of isolate MGRM-Chronic-B-008 (HIV-1)
[19] = target: HIV-1 Env of isolate MGRM-Chronic-B-002 (HIV-1)
[20] = target: HIV-1 Env of isolate MGRM-Chronic-B-001 (HIV-1)
[21] = target: HIV-1 Env of isolate CAAN.A2 (HIV-1)
[22] = target: HIV-1 Env of isolate MGRM-Chronic-B-023 (HIV-1)
[23] = target: HIV-1 Env of isolate MG RM-C-028 (HIV-1)
[24] = target: HIV-1 Env of isolate MGRM-Chronic-B-020 (HIV-1)
[25] = target: HIV-1 Env of isolate APV_6 (HIV-1)
[26] = target: HIV-1 Env of isolate PVO.4 (HIV-1)
[27] = target: HIV-1 Env of isolate TRJ04551.58 (HIV-1)
[28] = target: HIV-1 Env of isolate 97ZA012 (HIV-1)
[29] = target: HIV-1 Env of isolate MG RM-C-022 (HIV-1)
[30] = target: HIV-1 Env of isolate MGRM-Chronic-B-012 (HIV-1)
[31] = target: HIV-1 Env of isolate 92 BR 020 (HIV-1)
[32] = target: HIV-1 Env of isolate QH0692.42 (HIV-1)
[33] = target: HIV-1 Env of isolate MGRM-Chronic-B-004 (HIV-1)
[34] = target: HIV-1 Env of isolate SC422661.8 (HIV-1)
[35] = target: HIV-1 Env of isolate MG RM-C-023 (HIV-1)
[36] = target: HIV-1 Env of isolate MG RM-C-020 (HIV-1)
[37] = target: HIV-1 Env of isolate TRO.11 (HIV-1)
[38] = target: HIV-1 Env of isolate MG RM-C-025 (HIV-1)
[39] = target: HIV-1 Env of isolate SF162 (HIV-1) (UniProt P19550)
[40] = target: HIV-1 Env of isolate MG RM-C-024 (HIV-1)
[41] = target: HIV-1 Env of isolate APV_13 (HIV-1)
[42] = target: HIV-1 Env of isolate JRCSF (HIV-1) (UniProt P20871)
[43] = target: HIV-1 Env of isolate MGRM-Chronic-B-003 (HIV-1)

PGT-123 monoclonal antibody (4858_P08)
neutralization IC50 [1]: 0.001 µg/mL | neutralization IC50 [2]: > 50 µg/mL | neutralization IC50 [3]: > 50 µg/mL | neutralization IC50 [4]: 0.008 µg/mL | neutralization IC50 [5]: 0.014 µg/mL | neutralization IC50 [6]: > 50 µg/mL | neutralization IC50 [7]: > 50 µg/mL | neutralization IC50 [8]: 0.004 µg/mL | neutralization IC50 [9]: 0.114 µg/mL | neutralization IC50 [10]: 0.004 µg/mL | neutralization IC50 [11]: 0.009 µg/mL | neutralization IC50 [12]: 0.011 µg/mL | neutralization IC50 [13]: > 50 µg/mL | neutralization IC50 [14]: 0.011 µg/mL | neutralization IC50 [15]: > 50 µg/mL | neutralization IC50 [16]: 0.02 µg/mL | neutralization IC50 [17]: 0.004 µg/mL | neutralization IC50 [18]: 0.01 µg/mL | neutralization IC50 [19]: 0.234 µg/mL | neutralization IC50 [20]: 0.15 µg/mL | neutralization IC50 [21]: 0.015 µg/mL | neutralization IC50 [22]: 0.055 µg/mL | neutralization IC50 [23]: 0.402 µg/mL | neutralization IC50 [24]: 0.005 µg/mL | neutralization IC50 [25]: 0.023 µg/mL | neutralization IC50 [26]: 0.105 µg/mL | neutralization IC50 [27]: 16.9 µg/mL | neutralization IC50 [28]: 0.002 µg/mL | neutralization IC50 [29]: 0.01 µg/mL | neutralization IC50 [30]: 0.227 µg/mL | neutralization IC50 [31]: 0.008 µg/mL | neutralization IC50 [32]: 0.158 µg/mL | neutralization IC50 [33]: 0.008 µg/mL | neutralization IC50 [34]: 0.039 µg/mL | neutralization IC50 [35]: 0.011 µg/mL | neutralization IC50 [36]: > 50 µg/mL | neutralization IC50 [37]: 0.008 µg/mL | neutralization IC50 [38]: 13.3 µg/mL | neutralization IC50 [39]: 0.005 µg/mL | neutralization IC50 [40]: 0.195 µg/mL | neutralization IC50 [41]: 0.138 µg/mL | neutralization IC50 [42]: 0.046 µg/mL | neutralization IC50 [43]: 0.008 µg/mL

PGT-127 monoclonal antibody (5145_B14)
neutralization IC50 [1]: 0.014 µg/mL | neutralization IC50 [2]: > 50 µg/mL | neutralization IC50 [3]: > 50 µg/mL | neutralization IC50 [4]: 0.017 µg/mL | neutralization IC50 [5]: 0.029 µg/mL | neutralization IC50 [6]: 0.297 µg/mL | neutralization IC50 [7]: > 50 µg/mL | neutralization IC50 [8]: 0.024 µg/mL | neutralization IC50 [9]: 10.4 µg/mL | neutralization IC50 [10]: 0.02 µg/mL | neutralization IC50 [11]: 0.019 µg/mL | neutralization IC50 [12]: 6.95 µg/mL | neutralization IC50 [13]: > 50 µg/mL | neutralization IC50 [14]: 19.2 µg/mL | neutralization IC50 [15]: 1.9 µg/mL | neutralization IC50 [16]: > 50 µg/mL | neutralization IC50 [17]: 0.022 µg/mL | neutralization IC50 [18]: 21.5 µg/mL | neutralization IC50 [19]: 0.279 µg/mL | neutralization IC50 [20]: > 50 µg/mL | neutralization IC50 [21]: 0.371 µg/mL | neutralization IC50 [22]: > 50 µg/mL | neutralization IC50 [23]: 7.57 µg/mL | neutralization IC50 [24]: 0.05 µg/mL | neutralization IC50 [25]: 0.04 µg/mL | neutralization IC50 [26]: 0.164 µg/mL | neutralization IC50 [27]: 0.063 µg/mL | neutralization IC50 [28]: > 50 µg/mL | neutralization IC50 [29]: 0.41 µg/mL | neutralization IC50 [30]: 0.075 µg/mL | neutralization IC50 [31]: 0.059 µg/mL | neutralization IC50 [32]: 0.129 µg/mL | neutralization IC50 [33]: 0.018 µg/mL | neutralization IC50 [34]: 36.7 µg/mL | neutralization IC50 [35]: 1.08 µg/mL | neutralization IC50 [36]: > 50 µg/mL | neutralization IC50 [37]: 0.079 µg/mL | neutralization IC50 [38]: > 50 µg/mL | neutralization IC50 [39]: 0.019 µg/mL | neutralization IC50 [40]: > 50 µg/mL | neutralization IC50 [41]: 0.026 µg/mL | neutralization IC50 [42]: 0.018 µg/mL | neutralization IC50 [43]: 0.12 µg/mL
